Test results: the DeepSol protein solubility set

Assay: soluble on expression in E. coli; label from the status in PepcDB or PDB records

Sequence | soluble on expression in E. coli
MGSDKIHHHHHHVKRFDWYTEIHRLDAEADCRRITEILTTHEFPWDIEQALSLALYRTYAVPSIGQLLAETREFLDRTQRRSDDTALILTEIMRHGFEPGRGRDALRRMNQMHRSYDISNDDYLYVLSTFVVMPVRWINDLGYGWRRLTEHEITANTNYYRLLGKHMGIKEIPETYDEFYELFDSYEIAHFGYSEGGRAVSDATLRLMVDTVPRWQQPVFRKFTMALLDDRLIQAFRYDPPSRFWRTAAHLAMWLRAKIVRFMPPRVEPYRIENNPKIKSYPNGYDPRRIGTFPKGCPVPHDMVTIEIPETGARIPAPGQELAPQGQDARA | not soluble
MGSDKIHHHHHHMIITVINGSPRKNGATSKVLTYLYKDIERLIPDVKINYFDLSEVNPSYCIGCLNCYKMGKCINQNDKVEYIHDIITKSDGVIFGSPTYGSSVTGLFKVFTDRAHMMLERLLYRKPCIAVTTYENARGSKAISFIKSMVLDSGGYVCGSLSIKTGFNQNPITEKVESKIQKVSKKFIYCIEEKKNPPVLSQIYNFIAINAVLKPMAFKDIEQYKGIIDRWEEQGII | not soluble
MRHNIKFKSKGTLKIRNTAQISLWKKCSDSMIADQTYLFINRVQDRRFDEESLRILELSLVAMNVKSFLEVRSRLRDFMRSESVVIFGELTGESMVAKLSVLEFFARAFALLGDMESCLAMRYEALNLRQLKSPSCLWLGVSHSEWTKFAVQSMENGFPSIAGKASENALLSLKKDSLIEPKSEDNSDILDAAEKVRRLRDSAASLTSSHSGIFIYIVSSLKFAVCNRLLTTF | soluble
MQPSFRIVADGTDVTQRLNDRLLKLTLLDKPGMESDSLTLRIDDRDGQVALPRRGAVLEVHLGYAGEPLMRMGRFTVDTLQWAGPPDCLTVTAKAGDMRGSGKTIRSGGWEGTTLAQVCRDVGARNGWRVECPLQVAIARVDQVNESDYHFVTRLARQYDCTAKLAEGMLMVLPRQSGQSATGRRIEPLVLGRADVGSFDVTFDDRSLMRTVKTRYQLPGSGEVKSVELKNPKAPATAMGEHVDRHLYTSRGEAEQAAKARLASFSRSSASVRLELPGRGDLFAERSLLLQGFKAGIDGEFLIDSVEHTYSSSGWTTVVQCNGGRGGKG | not soluble
MAHHHHHHMPTVSSSTPSPASTPTVGVPPGKVWLNADEPNDEYSLFCTEAIPPKVPGTVRIWVDGCFDMLHFGHANALRRARRLGDELFVGCHSDEEVMRFKGPPIMHAEERYEALRACKWVDHVVENYPYCTRLKDIERFEIDYVVHGDDISVDLNGRNSYQEIIDAGKFKVVKRTKGISTTDLVGRMLLCTKNHMLKSVDEVQLENSLLEHSPTMPCLTTSRKIVQFSNNSSPKPGDRIVYVDGSFDLFHIGHIRVLQKARELGDYVIAGVYEDQVVNEHKGKNYPIMSFNERVLGVLSCRYVDEVVMGVPFDVSKDVIDGLHINVVVGDKFSDLVVEEGGSTRYEVPKAMGIYHEVDSGCILSTDSLIDRVVENRLDFLKRQAEKRIKDTKSQEIKPDEYRKLREAS | not soluble
MKEIKIGLIGFGTIGTGVAKLLQANAGLIADKVGAMVTLKKIADLDVTTDRGIELPPGTLTSNVADVLDDPEISVVIELIGGYEPAKSFVLRAINNGKHVVTANKALLALHGEEIYPAAAAKGVQVLFEAAVGGGIPVISAILGNMAANNFTTVLGILNGTCNYILTRMTQEGADFGDVLKTAQELGYAEADPTFDIEGVDTAHKLALLVSLCFGTKVDFNAIHTEGISSISSADIGFARDFGYKIKLLAIGKRTGDTVEARVHPTMIPVNYPLADVDGVFNAIRFTGDFIGPVMFYGRGAGMDPTASAVVGDVIEIARNIIAGVSRRCAPLGYRDEAVTTLALKPMGEIEGKYYLRFSAVDKPGVLAKISGALGKYDISIESMIQKGRSAGESVPIVIMTHEAREKDIRAALEEIDTFELISEKSRFIRIEDNLE | not soluble
MRGSHHHHHHGSIEGRMEKINYLLPEESAEMTLNQVKSLRQIEGRLRKLFSLKNYQEVMPPSFEYTQLYTALESNGKTFNQEKMFQFIKHEGQSITLRYDFTLPLVRLYSQIKDSTSARYSYFGKIFRKEKRHKGRSTENYQIGIELFGESADKSELEILSLALQVIEQLGLNKTVFEIGSAKFFQRLCQLADGSTELLTELLLKKDLSGLNAFIEKNNFSKELRGLLKEIFITNELSRLENLVTNTKDDVLISSFDQLKEFSEKLSMIKPIIIDLGMVPKMDYYTDLMFKAYSSAANQPILSGGRYDQLLSNFQEEAFAIGFCCHMDTILKALERQELEEDND | soluble
MGSDKIHHHHHHMLKHLDNITDCRSHINQEHDVIDICFLVLSAVISGAQSWSACHEFGTLELEWLRKYRPFTNGIPSQQSIGRIFRGVSKQSLLDALMSWVNEYRVNTGQSSIAIDGKVLKGAKASASSAALHMVTAYDTGSGLVFSAKSGASKKSELKLVQELLTCLDLKSELLTFDALHCQSQTLDYIAKEGGDCILQVKGNQPKLYEALQAQFTDYIENNPDAECFTETNKGHGRVEKRITFQCPLNLPAEIKMKWSQLKTLIAVERHRKVGNKTSIDTHFYVSSAVLTSEAFGRAIRAHWQTENNQHWLLDKLFQEDKQKMYDEDGASILAILRRWALNLVKLHPAKTSQTQKFNRACWSDDFREEIIFGTGQKV | not soluble
MGSDKIHHHHHHMINQVYQLVSPRQFEATFKTIDLHNHNSKVIVRPLYLSICAADLRYYCGNRDSKILSKKLPMSLIHESVGEIVYDSEHRLKNGTKVVMIPNTPSKSHNIIAENYLTSSHFKSSGYDGFMQDYIVMKPDRVVTLPQEIDLSVASYTELVTVSVHAIDRFQSKAIPQFESLGIWGDGNLGYITAVLLKKLYPTTKIIVFGKTLYKLSRFSFVDEIIQIDNIPQHIKIDHAFECVGGKGSQQAIEQIINIINPEGSIALLGVSELPIQVNTRMVLEKGLTIIGSSRSGLKDFEKTIELYRKYPEVLNQLALLKGKEFEINTIEDLITAFEYDISNAWGKTVLKWNI | not soluble
SLSKLMLRHKAKKIDHVAIAVLDLEQAIGYFSMMGFTLSDRMTTTGAHSAMHSAVMEAGPIKFVLLEGANETSQITRFINEYGPGPQHIAIEVENVESLCKELEKQGLDFSTKTIKGPELIQRFTVRCPNSGVMIEFIERNEEEGFSEQNVEDLFRQLEASDAYEG | soluble
MGSDKIHHHHHHMEPFSPLNWFRRSSSQASCRTALSSQPSLEAAVNEVAAALAGGSSADLALVFASTHYASDLQRLLPLLQRRLKATHWLGCAGGGVIGTTAKGNASELEKEPALSITMLQLPGAILKPFYLETQSLPDLDGPAQHWQEWVGADPFNARSMLLLVDPSSRSINDLISGLDYAYPTTTKLGGIAGPHNAPHGSLFFDDRVVMGAVGCSFGGDWNLEVVVAQGCKPIGPVFAIEQVQKNILLELSHENQRDSPMACLQRVLDDLSEEEREMVRHSLFLGIERRDLVLAGTGAPQPQGAFLVRNLIGVDPKNGAVAVAEQIRAGQNVQFQLREAEASRQESELLLGAARERNTSPPLFGLLMACLGRGHGLYGVPNGDVHIARKLMAELPIAGVFCNGEIGPAGGVGATHIHGYTACWGLLRHDPSSSEPAKSV | not soluble
MGKVTGFLEIERHDRVYAPVTDRVKNYNEFVVPLSEKDLRDQAARCMNCGIPYCHGTGSAQPGATGCPVNNQIPDWNDLVYNGYWQEAARTLHSTNNFPEFTGRICPAPCEASCTLNIDDNPVTIKTIECAIVDTAFDNGWVTPEIAAVKTGQSVAVVGAGPAGLACAQQLARAGHDVHVYEKFAKAGGLLRYGIPDFKMEKTLIDRRVAQMEAEGVTFHYGAPVGGSAPGAVDPAELLKQYDAVALTGGAEAPRDLPIPGRELGGIHFAMDFLTQQNRRVSGEAVNGTDILAAGKNVVVIGGGDTGSDCIGTSIRQGAKSVTQIEIMPAPPERENKALTWPNWPMKMRTSSSQAEGAAREFAVMTQSFEGEGGVVKKLNCVRVDAKFQPIPGTEFTLEADLVLLAMGFVSPVKEGLLTQLGVALDPRGNVAADLSHFTTSVDKVFAAGDMRRGQSLVVWAIREGRLCAQAIDRFLMGATTLPRLEHHHHHH | not soluble
